# Test results reported in patent US20220259593A1, “CONTROL OF MAMMALIAN GENE DOSAGE USING CRISPR” (The Regents of the University of California, priority 2019, published 2022).
# Test system: K562 CRISPRi cells
# Test: Constant region variant library pooled growth screen, K562
# Assay type: cell-based, human
# Settings: sgRNA constant region variants; activity relative to the original, un-modified constant region cr995
# How it was run: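 Library of sgRNA constant-region variants, each paired with 36 targeting sequences (essential-gene and non-targeting), transduced in duplicate into K562 CRISPRi cells, puromycin-selected and grown 4–8 days at >2000× coverage. Activity per variant is its growth phenotype normalised to the same targeting sequence with unmodified constant region.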
row,Molecule,Mean relative activity
1,"cr563 (nucleic acid, listed as DNA, chemistry not fully specified) guide: GTTTAAGAGCTAAGCTGGAAACAGCATAGCAAGTTTAAATAAGGCTAGTCCGTTATCAAGCTGAAAAGCTGGCACCGAGTCGGTGCT",1.068
2,"cr327 (nucleic acid, listed as DNA, chemistry not fully specified) guide: GTTTAAGAGCTAAGCTGGAAACAGCATAGCAAGTTTAAATAAGGCTAGTCCGTTATCAACTTGCAAAAGTGGCACCGAGTCGGTGCT",1.066
3,"cr176 (nucleic acid, listed as DNA, chemistry not fully specified) guide: GTTTAAGAGCTAAGCTGGAAACAGCATAGCAAGTTTAAATAAGGCTAGTCCGTTATCAGCTTGAAAAAGCGGCACCGAGTCGGTGCT",1.067

# Same assay, conditions: sgRNA constant region variants; activity relative to the un-modified constant region cr995
row,Molecule,Mean relative activity
1,"cr368 (nucleic acid, listed as DNA, chemistry not fully specified) guide: GTTTAAGAGCTAAGCTGGAAACAGCATAGCAAGTTTAAATAAGGCTAGTCCGTTATCACATTGAAAAATGGGCACCGAGTCGGTGCT",0.9836
2,"cr238 (nucleic acid, listed as DNA, chemistry not fully specified) guide: GTTTAAGAGCTAAGCTGGAAACAGCATAGCAAGTTTAAATAAGGCTAGTCCGTTATCAACTTGAAAAAGTGGCTTCGAGTCGAAGCT",0.9809
3,"cr644 (nucleic acid, listed as DNA, chemistry not fully specified) guide: GTTTAAGAGCTAAGCTGGAAACAGCATTGCAAGTTTAAATAAGGCTAGTCCGTTATCAACTTGAAAAAGTGGCACCGAGTCGGTGCT",0.9694
4,"cr270 (nucleic acid, listed as DNA, chemistry not fully specified) guide: GTTTAAGAGCTAAGCTGGAAACAGCATAGCAAGTTTAAATAAGGCTAGTCCGTTATCATCCTGAAAAGGAGGCACTGAGTCAGTGCT",0.9835
5,"cr159 (nucleic acid, listed as DNA, chemistry not fully specified) guide: GTTTAAGAGCTAAGCTGGAAACAGCATAGCTAGTTTAAATAAGGCTAGTCCGTTATCAACTTGAAAAAGTGGCACCGAGTCGGTGCT",0.9739
6,"cr747 (nucleic acid, listed as DNA, chemistry not fully specified) guide: GTTTAAGAGCTAAGCTGGAAACAGCATAGCAAGTTTAAATAAGGCTAGTCCGTTATCACCTTGAGAAAGGGGCACCGAGTCGGTGCT",0.9812
7,"cr843 (nucleic acid, listed as DNA, chemistry not fully specified) guide: GTTTAAGAGCTAAGCTGGAATCAGCATAGCAAGTTTAAATAAGGCTAGTCCGTTATCAACTTGAAAAAGTGGCACCGAGTCGGTGCT",0.9823
8,"cr147 (nucleic acid, listed as DNA, chemistry not fully specified) guide: GTTTAAGAGCTAAGCTGGAAACAGCATAGCAAGTTTAAATAAGGCTAGTCCGTTATCAACTTATAAAAGTGGCACCGACTCGGTGCT",0.9753
9,"cr021 (nucleic acid, listed as DNA, chemistry not fully specified) guide: GTTTAAGCGCTAAGCTGGAAACAGCATAGCAAGTTTAAATAAGGCTAGTCCGTTATCAACTTGAAAAAGTGGCACCGAGTCGGTGCT",0.9786
10,"cr251 (nucleic acid, listed as DNA, chemistry not fully specified) guide: GTTTAAGAGCTAAGCTGGAAACAGCATAGCAAGTTTAAATAAGGCTAGTCCGTGATCAACTTGTAAAAGTGGCACCGACTCGGTGCT",0.9836
11,"cr918 (nucleic acid, listed as DNA, chemistry not fully specified) guide: GTTTAAGAGCTAAGCTGGAAACAGCATAGCAAGTTTAAATAAGGCTAGTCCGTTATCATCTTGAAAAAGAGGCACCGAGTCGGTGCT",0.982
12,"cr226 (nucleic acid, listed as DNA, chemistry not fully specified) guide: GTTTAAGAGCTAAGCTGGAAACAGCATAGCAAGTTTAAATAAGGCTAGTCCGTTATCAACTTGAAAAAGTGGCCACGAGTCGTGGCT",0.9795
13,"cr359 (nucleic acid, listed as DNA, chemistry not fully specified) guide: GTTTAAGAGCTAAGCTGGAAACAGCATCGCAAGTTTAAATAAGGCTAGTCCGTTATCAACTTGAAAAAGTGGCACCGAGTCGGTGCT",0.9746
14,"cr754 (nucleic acid, listed as DNA, chemistry not fully specified) guide: GTTTAAGAGCTAAGCTGGAAACAGCATAGCAAGTTTAAATAAGGCTAGTCCGTTATCAACTTTAAAAAGTGGCACCGAGTCGGTGCT",0.9804
15,"cr224 (nucleic acid, listed as DNA, chemistry not fully specified) guide: GTTTAAGAGCTAAGCTGGAAACAGCATAGCAAGTTTAAATAAGGCTAGTCCGTTATCAACCTGAAAAGGTGGTATCGAGTCGATACT",0.9777
16,"cr307 (nucleic acid, listed as DNA, chemistry not fully specified) guide: GTTTAAGAGCTAAGCTGGAAACAGCATAGCAAGTTTAAATAAGGCTAGTCCGTTATCAACTTGAAAAAGTGGCACCAAGTTGGTGCT",0.9746
17,"cr556 (nucleic acid, listed as DNA, chemistry not fully specified) guide: GTTTAAGAGCTAAGCTGGAAACAGCATAGCAAGTTTAAATAAGGCTAGTCCGTTATCAACTCGAAAGAGTGATACCGAGTCGGTATT",0.9785
18,"cr969 (nucleic acid, listed as DNA, chemistry not fully specified) guide: GTTTAAGAGCTAAGCTGGAAACAGCATAGCAAGTTTAAATAAGGCTAGTCCGTTATCATCTTGAGAAAGAGGCACCGAGTCGGTGCT",0.9815
19,"cr624 (nucleic acid, listed as DNA, chemistry not fully specified) guide: GTTTAAGAGCTAAGCTGGAAACAGCATAGCAAGTTTAAATAAGGCTAGTCCGTTGTCAACTTGAAAAAGTGGCACCGAGTCGGTGCT",0.9799
20,"cr783 (nucleic acid, listed as DNA, chemistry not fully specified) guide: GTTTAAGAGCTAAGCTGGAAACAGCATAGCAAGTTTAAATAAGGCTAGTCCGTTATCATCTTGAAAAAGAGGAACCGAGTCGGTTCT",0.9779
21,"cr811 (nucleic acid, listed as DNA, chemistry not fully specified) guide: GTTTAAGAGCTAAGCTGGAAACAGTATAGCAAGTTTAAATAAGGCTAGTCCGTTATCAACTTGAAAAAGTGGCACCGAGTCGGTGCT",0.9803
22,"cr782 (nucleic acid, listed as DNA, chemistry not fully specified) guide: GTTTAAGAGCTAAGCTGGAAACAGCATAGCAAGTTTAAATAAGGCTAGTCCGTTATCAACTTTAGAAAGTGGCACCGAGTCGGTGCT",0.9816
23,"cr800 (nucleic acid, listed as DNA, chemistry not fully specified) guide: GTTTAAGAGCTAAGCTGGAAACAGCATAGCAAGTTTAAATAAGGTTAATCCGTTATCATCTTGAAAAAGAGACACCGAGTCGGTGTT",0.9728
24,"cr970 (nucleic acid, listed as DNA, chemistry not fully specified) guide: GTTTAAGAGCTAAGCTGGAAACAGCATAGCAAGTTTAAATAAGGCTAGTCCGTTATCAACTTGTTAAAGTGGCACCGAGTCGGTGCT",0.9826
25,"cr906 (nucleic acid, listed as DNA, chemistry not fully specified) guide: GTTTAAGAGCTAAGCTGGAAACAGCATAGCAAGTTTAAATAAGGCTAGTCCGTTATCAACTTGAGAAAGTGGCAGCGAGTCGCTGCT",0.9817
26,"cr299 (nucleic acid, listed as DNA, chemistry not fully specified) guide: GTTTAAGAGCTAAGCTGGAAACAGCATAGCAAGTTTAAATAAGGCTAGTCCGTTATCAACTTGGGAAAGTGGCACCGAGTCGGTGCT",0.9718
27,"cr926 (nucleic acid, listed as DNA, chemistry not fully specified) guide: GTTTAAGAGCTAAGCTGGAAACAGAATAGCAAGTTTAAATAAGGCTAGTCCGTTATCAACTTGAAAAAGTGGCACCGAGTCGGTGCT",0.9811
